Test results reported in doi:10.1101/2020.12.08.415968 (bioRxiv, 2020).

Target: T1, SiRHP (sulfite reductase hemoprotein, full length, hydrogenated) (Escherichia coli, UniProt P17846 1-570)
T1 sequence (looked up): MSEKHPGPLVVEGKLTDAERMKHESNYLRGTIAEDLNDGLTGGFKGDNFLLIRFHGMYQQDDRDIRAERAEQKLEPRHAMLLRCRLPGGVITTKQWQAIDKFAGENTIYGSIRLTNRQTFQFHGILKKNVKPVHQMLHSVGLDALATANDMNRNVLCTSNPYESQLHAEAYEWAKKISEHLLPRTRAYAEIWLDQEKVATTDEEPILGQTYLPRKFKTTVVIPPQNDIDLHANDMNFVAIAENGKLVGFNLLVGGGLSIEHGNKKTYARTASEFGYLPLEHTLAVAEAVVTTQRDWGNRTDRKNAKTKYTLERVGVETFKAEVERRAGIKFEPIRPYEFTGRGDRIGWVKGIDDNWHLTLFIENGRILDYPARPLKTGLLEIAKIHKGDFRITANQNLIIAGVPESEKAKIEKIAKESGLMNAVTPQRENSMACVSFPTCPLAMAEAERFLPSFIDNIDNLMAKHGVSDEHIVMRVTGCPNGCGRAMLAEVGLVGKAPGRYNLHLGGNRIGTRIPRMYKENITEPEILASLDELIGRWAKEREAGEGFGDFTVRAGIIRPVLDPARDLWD
Experiment: AUC

binding result: binds
B1: SiRFP-60 (monomeric 60 kDa sulfite reductase flavoprotein, 52 N-terminal amino acids removed) (domain or fragment, Escherichia coli, UniProt P38038 53-599, looked up)
chain: ATPAPAAEMPGITIISASQTGNARRVAEALRDDLLAAKLNVKLVNAGDYKFKQIASEKLLIVVTSTQGEGEPPEEAVALHKFLFSKKAPKLENTAFAVFSLGDSSYEFFCQSGKDFDSKLAELGGERLLDRVDADVEYQAAASEWRARVVDALKSRAPVAAPSQSVATGAVNEIHTSPYSKDAPLVASLSVNQKITGRNSEKDVRHIEIDLGDSGMRYQPGDALGVWYQNDPALVKELVELLWLKGDEPVTVEGKTLPLNEALQWHFELTVNTANIVENYATLTRSETLLPLVGDKAKLQHYAATTPIVDMVRFSPAQLDAEALINLLRPLTPRLYSIASSQAEVENEVHVTVGVVRYDVEGRARAGGASSFLADRVEEEGEVRVFIEHNDNFRLPANPETPVIMIGPGTGIAPFRAFMQQRAADEAPGKNWLFFGNPHFTEDFLYQVEWQRYVKDGVLTRIDLAWSRDQKEKVYVQDKLREQGAELWRWINDGAHIYVCGDANRMAKDVEQALLEVIAEFGGMDTEAADEFLSELRVERRYQRDVY
